Where no end group is shown, it is not given here.

Consider six molecules from article PMC5068707 (PLoS Pathogens, 2016).

Sequences and labels used below:
T1: MARV VP30 CTD (146–281) (Marburg virus (MARV), UniProt P35258 146-281)
T1 sequence: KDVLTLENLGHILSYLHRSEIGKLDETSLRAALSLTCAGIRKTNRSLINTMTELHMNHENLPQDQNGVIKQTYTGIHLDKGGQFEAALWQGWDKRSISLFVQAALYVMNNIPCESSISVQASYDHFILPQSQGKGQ

T2: EBOV NP C-terminal portion (360–739) (Ebola virus (EBOV), UniProt P18272 360-739)
T2 sequence: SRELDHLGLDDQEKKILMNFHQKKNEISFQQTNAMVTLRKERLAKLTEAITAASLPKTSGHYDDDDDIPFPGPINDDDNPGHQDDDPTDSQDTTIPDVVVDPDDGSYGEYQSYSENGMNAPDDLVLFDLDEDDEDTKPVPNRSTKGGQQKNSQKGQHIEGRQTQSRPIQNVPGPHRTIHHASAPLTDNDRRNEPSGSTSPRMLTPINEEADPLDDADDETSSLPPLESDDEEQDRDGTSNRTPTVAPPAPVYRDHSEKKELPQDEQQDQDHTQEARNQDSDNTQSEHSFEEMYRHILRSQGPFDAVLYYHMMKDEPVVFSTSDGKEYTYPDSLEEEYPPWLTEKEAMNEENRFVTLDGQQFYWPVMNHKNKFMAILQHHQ

B1: biotinylated EBOV NP peptide 560–617 (peptide)
chain: RMLTPINEEADPLDDADDETSSLPPLESDDEEQDRDGTSNRTPTVAPPAPVYRDHSEK
modifications: not fully specified (N-terminus); also: biotinylated (position not given here)
B2: Ebola virus VP30 C-terminal domain (amino acids 139–288) (domain or fragment)
chain: GPKITLLTLIKTAEHWARQDIRTIEDSKLRALLTLCAVMTRKFSKSQLSLLCETHLRREGLGQDQAEPVLEVYQRLHSDKGGSFEAALWQQWDRQSLIMFITAFLNIALQLPCESSAVVVSGLRTLVPQSDNEEASTNPGTCSWSDEGTP

For test [1], the target named is MARV NP 552-579-VP30 146–281 fusion protein (Marburg virus (MARV)) (UniProt P27588). Kind of test: crystal structure.
The target in test [2] is B2. Kind of test: crystal structure. To be noted: both partners purified.
Test [3] has as its target B2. Kind of test: BLI. As to conditions: both partners purified.
Another test has as its target T1, MARV VP30 CTD (146–281). As to the kind of experiment: ITC. As to conditions: both partners purified.
The target in test [4] is T2, EBOV NP C-terminal portion (360–739). As to the kind of experiment: ITC. To be noted: both partners purified.

“MARV NP 552-579-VP30 146–281 fusion protein (from UniProt P27588;P35258)” yielded a stoichiometry N in test [1] of 2. As for RTPTVAPPAPVYRDHSEKKELPQDEQQD [EBOV NP peptide (600–627), as the N-terminal part of the NP-VP30 fusion], in test [2], the binding result is on record as “binds”. Regarding SSLPPLESDDEEQDRDGTSNRTPTVAPPAPVYRDHSEK (not fully specified (N-terminus); also: biotinylated (position not given here)) [biotinylated EBOV NP peptide 580–617], the binding result in test [3] is listed as “binds”. Take EQGVDLPPPPLYAQEKRQ [MARV NP peptide (552–569) fused to T4 lysozyme]: the Kd with MARV VP30 CTD (146–281) was found to be 14 µM. For the molecule B1, in test [3], the binding result is “binds”. B2 had a Kd in test [4] of 21.3 µM.
